Measured values published in publication PMC12416549 (2024).

Molecular target: T1, TNFR1 (Homo sapiens, UniProt P19438)
T1 chain: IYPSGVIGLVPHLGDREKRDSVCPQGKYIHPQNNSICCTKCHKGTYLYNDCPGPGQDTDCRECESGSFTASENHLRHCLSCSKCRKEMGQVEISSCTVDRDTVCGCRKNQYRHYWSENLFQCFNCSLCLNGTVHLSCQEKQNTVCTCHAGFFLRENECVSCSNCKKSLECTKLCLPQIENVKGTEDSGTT
Test: yeast display SC50

B1: R89G (designed binder)
chain: MTLQELLREEALRRAEAEAFRYALELLAEKFPEQKEYLLDLAEEIESQIRSLSGVDVEDVRKFLDKEWAWVKELLAEHPAELAEVEAAGAARLAELRAEVEAKVAA
apparent Kd (screen): 1.05 nM

B2: L96R (designed binder)
chain: MTLQELLREEALRRAEAEAFRYALELLAEKFPEQKEYLLDLAEEIESQIRSLSGVDVEDVRKFLDKEWAWVKELLAEHPAELAEVEAARAARLAERRAEVEAKVAA
apparent Kd (screen): 0.956 nM

B3: A80Q (designed binder)
chain: MTLQELLREEALRRAEAEAFRYALELLAEKFPEQKEYLLDLAEEIESQIRSLSGVDVEDVRKFLDKEWAWVKELLAEHPQELAEVEAARAARLAELRAEVEAKVAA
apparent Kd (screen): 0.49 nM

B4: R97N (designed binder)
chain: MTLQELLREEALRRAEAEAFRYALELLAEKFPEQKEYLLDLAEEIESQIRSLSGVDVEDVRKFLDKEWAWVKELLAEHPAELAEVEAARAARLAELNAEVEAKVAA
apparent Kd (screen): 0.539 nM

B5: D59M (designed binder)
chain: MTLQELLREEALRRAEAEAFRYALELLAEKFPEQKEYLLDLAEEIESQIRSLSGVDVEMVRKFLDKEWAWVKELLAEHPAELAEVEAARAARLAELRAEVEAKVAA
apparent Kd (screen): 0.539 nM

B6: E95L (designed binder)
chain: MTLQELLREEALRRAEAEAFRYALELLAEKFPEQKEYLLDLAEEIESQIRSLSGVDVEDVRKFLDKEWAWVKELLAEHPAELAEVEAARAARLALLRAEVEAKVAA
apparent Kd (screen): 0.446 nM

B7: E86Q (designed binder)
chain: MTLQELLREEALRRAEAEAFRYALELLAEKFPEQKEYLLDLAEEIESQIRSLSGVDVEDVRKFLDKEWAWVKELLAEHPAELAEVQAARAARLAELRAEVEAKVAA
apparent Kd (screen): 0.869 nM

B8: Q4N (designed binder)
chain: MTLNELLREEALRRAEAEAFRYALELLAEKFPEQKEYLLDLAEEIESQIRSLSGVDVEDVRKFLDKEWAWVKELLAEHPAELAEVEAARAARLAELRAEVEAKVAA
apparent Kd (screen): 0.405 nM

B9: A42C (designed binder)
chain: MTLQELLREEALRRAEAEAFRYALELLAEKFPEQKEYLLDLCEEIESQIRSLSGVDVEDVRKFLDKEWAWVKELLAEHPAELAEVEAARAARLAELRAEVEAKVAA
apparent Kd (screen): 1.05 nM

B10: L75Y (designed binder)
chain: MTLQELLREEALRRAEAEAFRYALELLAEKFPEQKEYLLDLAEEIESQIRSLSGVDVEDVRKFLDKEWAWVKELYAEHPAELAEVEAARAARLAELRAEVEAKVAA
apparent Kd (screen): 0.718 nM

B11: A90R (designed binder)
chain: MTLQELLREEALRRAEAEAFRYALELLAEKFPEQKEYLLDLAEEIESQIRSLSGVDVEDVRKFLDKEWAWVKELLAEHPAELAEVEAARRARLAELRAEVEAKVAA
apparent Kd (screen): 0.718 nM

B12: A15Y (designed binder)
chain: MTLQELLREEALRRYEAEAFRYALELLAEKFPEQKEYLLDLAEEIESQIRSLSGVDVEDVRKFLDKEWAWVKELLAEHPAELAEVEAARAARLAELRAEVEAKVAA
apparent Kd (screen): 0.539 nM

B13: R8K (designed binder)
chain: MTLQELLKEEALRRAEAEAFRYALELLAEKFPEQKEYLLDLAEEIESQIRSLSGVDVEDVRKFLDKEWAWVKELLAEHPAELAEVEAARAARLAELRAEVEAKVAA
apparent Kd (screen): 0.539 nM

B14: E25I (designed binder)
chain: MTLQELLREEALRRAEAEAFRYALILLAEKFPEQKEYLLDLAEEIESQIRSLSGVDVEDVRKFLDKEWAWVKELLAEHPAELAEVEAARAARLAELRAEVEAKVAA
apparent Kd (screen): 0.869 nM
